Laboratory results published in the array DNA melting data of Ke et al..

Assay: melting temperature; melt of duplexes
Conditions: sodium 0.0675 M; strand 1 µM

| Substance | Tm |
| --- | --- |
| CGACGTGCATCATGTGCTG+CAGCACATCACGCACGTCG ((((((((.(.((((((((+)))))))).).)))))))) | 46.6 °C |
| CGACGTGCATCATGTGCTG+CAGCACATCGGGCACGTCG ((((((((...((((((((+))))))))...)))))))) | 47.9 °C |
| CGACGTGCATCATGTGCTG+CAGCACATCTGGCACGTCG ((((((((...((((((((+))))))))...)))))))) | 47.5 °C |
| CGACGTGCATCATGTGCTG+CAGCACATGCGGCACGTCG ((((((((..(((((((((+)))))))))..)))))))) | 52.7 °C |
| CGACGTGCATCATGTGCTG+CAGCACATGCTGCACGTCG (((((((((.(((((((((+))))))))).))))))))) | 55.8 °C |
| CGACGTGCATCATGTGCTG+CAGCACATGTAGCACGTCG ((((((((..(((((((((+)))))))))..)))))))) | 55.3 °C |
| CGACGTGCATCATGTGCTG+CAGCACATTAAGCACGTCG ((((((((.(.((((((((+)))))))).).)))))))) | 48.6 °C |
| CGACGTGCATCATGTGCTG+CAGCACATTACGCACGTCG ((((((((.(.((((((((+)))))))).).)))))))) | 48.1 °C |
| CGACGTGCATCATGTGCTG+CAGCACATTCTGCACGTCG (((((((((..((((((((+))))))))..))))))))) | 50.5 °C |
| CGACGTGCATCATGTGCTG+CAGCACATTGAGCACGTCG ((((((((...((((((((+))))))))...)))))))) | 50.2 °C |
| CGACGTGCATCATGTGCTG+CAGCACATTGCGCACGTCG ((((((((...((((((((+))))))))...)))))))) | 46.9 °C |
| CGACGTGCATCATGTGCTG+CAGCACATTTCGCACGTCG ((((((((...((((((((+))))))))...)))))))) | 46.9 °C |
| CGACGTGCATCATGTGCTG+CAGCACATTTGGCACGTCG ((((((((...((((((((+))))))))...)))))))) | 48.2 °C |
| CGACGTGCATGATGTGCTG+CAGCACATAAAGCACGTCG ((((((((.(.((((((((+)))))))).).)))))))) | 50.7 °C |
| CGACGTGCATGATGTGCTG+CAGCACATAACGCACGTCG ((((((((.(.((((((((+)))))))).).)))))))) | 49.3 °C |
| CGACGTGCATGATGTGCTG+CAGCACATAAGGCACGTCG ((((((((.(.((((((((+)))))))).).)))))))) | 52.8 °C |
| CGACGTGCATGATGTGCTG+CAGCACATACAGCACGTCG ((((((((...((((((((+))))))))...)))))))) | 49.5 °C |
| CGACGTGCATGATGTGCTG+CAGCACATACCGCACGTCG ((((((((...((((((((+))))))))...)))))))) | 47.5 °C |
| CGACGTGCATGATGTGCTG+CAGCACATAGGGCACGTCG ((((((((...((((((((+))))))))...)))))))) | 50.1 °C |
| CGACGTGCATGATGTGCTG+CAGCACATCATGCACGTCG (((((((((((((((((((+))))))))))))))))))) | 63.6 °C |
| CGACGTGCATGATGTGCTG+CAGCACATCCAGCACGTCG ((((((((..(((((((((+)))))))))..)))))))) | 53.6 °C |
| CGACGTGCATGATGTGCTG+CAGCACATCCGGCACGTCG ((((((((..(((((((((+)))))))))..)))))))) | 54.4 °C |
| CGACGTGCATGATGTGCTG+CAGCACATCTCGCACGTCG ((((((((..(((((((((+)))))))))..)))))))) | 53.9 °C |
| CGACGTGCATGATGTGCTG+CAGCACATCTGGCACGTCG ((((((((..(((((((((+)))))))))..)))))))) | 56.1 °C |

| Substance | Tm |
| --- | --- |
| CGACGTGCATGATGTGCTG+CAGCACATGAAGCACGTCG ((((((((.(.((((((((+)))))))).).)))))))) | 50.3 °C |
| CGACGTGCATGATGTGCTG+CAGCACATGCAGCACGTCG ((((((((...((((((((+))))))))...)))))))) | 50.4 °C |
| CGACGTGCATGATGTGCTG+CAGCACATGGAGCACGTCG ((((((((...((((((((+))))))))...)))))))) | 50.1 °C |
| CGACGTGCATGATGTGCTG+CAGCACATGGCGCACGTCG ((((((((...((((((((+))))))))...)))))))) | 48.1 °C |
| CGACGTGCATGATGTGCTG+CAGCACATGTAGCACGTCG ((((((((...((((((((+))))))))...)))))))) | 49.9 °C |
| CGACGTGCATGATGTGCTG+CAGCACATGTCGCACGTCG ((((((((...((((((((+))))))))...)))))))) | 48.8 °C |
| CGACGTGCATGATGTGCTG+CAGCACATTATGCACGTCG ((((((((((.((((((((+)))))))).)))))))))) | 57.3 °C |
| CGACGTGCATGATGTGCTG+CAGCACATTCTGCACGTCG (((((((((..((((((((+))))))))..))))))))) | 52.9 °C |
| CGACGTGCATGATGTGCTG+CAGCACATTGAGCACGTCG ((((((((...((((((((+))))))))...)))))))) | 50.7 °C |
| CGACGTGCATGATGTGCTG+CAGCACATTTGGCACGTCG ((((((((...((((((((+))))))))...)))))))) | 50.3 °C |
| CGACGTGCATTATGTGCTG+CAGCACATAAAGCACGTCG ((((((((.((((((((((+)))))))))).)))))))) | 54.6 °C |
| CGACGTGCATTATGTGCTG+CAGCACATAAGGCACGTCG ((((((((.((((((((((+)))))))))).)))))))) | 56.7 °C |
| CGACGTGCATTATGTGCTG+CAGCACATAGAGCACGTCG ((((((((..(((((((((+)))))))))..)))))))) | 51.2 °C |
| CGACGTGCATTATGTGCTG+CAGCACATAGTGCACGTCG (((((((((.(((((((((+))))))))).))))))))) | 53.1 °C |
| CGACGTGCATTATGTGCTG+CAGCACATATAGCACGTCG ((((((((..(((((((((+)))))))))..)))))))) | 52.3 °C |
| CGACGTGCATTATGTGCTG+CAGCACATATGGCACGTCG ((((((((..(((((((((+)))))))))..)))))))) | 51.8 °C |
| CGACGTGCATTATGTGCTG+CAGCACATCAGGCACGTCG ((((((((.(.((((((((+)))))))).).)))))))) | 49.9 °C |
| CGACGTGCATTATGTGCTG+CAGCACATCATGCACGTCG ((((((((((.((((((((+)))))))).)))))))))) | 54.1 °C |
| CGACGTGCATTATGTGCTG+CAGCACATCCGGCACGTCG ((((((((...((((((((+))))))))...)))))))) | 47.3 °C |
| CGACGTGCATTATGTGCTG+CAGCACATCCTGCACGTCG (((((((((..((((((((+))))))))..))))))))) | 49.9 °C |
| CGACGTGCATTATGTGCTG+CAGCACATCGAGCACGTCG ((((((((...((((((((+))))))))...)))))))) | 47.4 °C |
| CGACGTGCATTATGTGCTG+CAGCACATCGCGCACGTCG ((((((((...((((((((+))))))))...)))))))) | 45.8 °C |
| CGACGTGCATTATGTGCTG+CAGCACATCGTGCACGTCG (((((((((..((((((((+))))))))..))))))))) | 47.3 °C |
| CGACGTGCATTATGTGCTG+CAGCACATCTGGCACGTCG ((((((((...((((((((+))))))))...)))))))) | 48.4 °C |

| Substance | Tm |
| --- | --- |
| CGACGTGCATTATGTGCTG+CAGCACATCTTGCACGTCG (((((((((..((((((((+))))))))..))))))))) | 51.1 °C |
| CGACGTGCATTATGTGCTG+CAGCACATGCCGCACGTCG ((((((((...((((((((+))))))))...)))))))) | 47.5 °C |
| CGACGTGCATTATGTGCTG+CAGCACATGCTGCACGTCG (((((((((..((((((((+))))))))..))))))))) | 49 °C |
| CGACGTGCATTATGTGCTG+CAGCACATGGCGCACGTCG ((((((((...((((((((+))))))))...)))))))) | 48.4 °C |
| CGACGTGCATTATGTGCTG+CAGCACATGTAGCACGTCG ((((((((...((((((((+))))))))...)))))))) | 49.4 °C |
| CGACGTGCATTATGTGCTG+CAGCACATGTGGCACGTCG ((((((((...((((((((+))))))))...)))))))) | 49.2 °C |
| CGACGTGCATTATGTGCTG+CAGCACATTCAGCACGTCG ((((((((...((((((((+))))))))...)))))))) | 48.7 °C |
| CGACGTGCATTATGTGCTG+CAGCACATTCGGCACGTCG ((((((((...((((((((+))))))))...)))))))) | 48.5 °C |
| CGACGTGCCAAATGTGCTG+CAGCACATAAGGCACGTCG (((((((((..((((((((+))))))))..))))))))) | 54.4 °C |
| CGACGTGCCAAATGTGCTG+CAGCACATACCGCACGTCG ((((((((...((((((((+))))))))...)))))))) | 47.3 °C |
| CGACGTGCCAAATGTGCTG+CAGCACATAGGGCACGTCG (((((((((..((((((((+))))))))..))))))))) | 54.6 °C |
| CGACGTGCCAAATGTGCTG+CAGCACATATCGCACGTCG ((((((((.(.((((((((+)))))))).).)))))))) | 47.2 °C |
| CGACGTGCCAAATGTGCTG+CAGCACATATGGCACGTCG ((((((((((.((((((((+)))))))).)))))))))) | 56.9 °C |
| CGACGTGCCAAATGTGCTG+CAGCACATATTGCACGTCG ((((((((.(.((((((((+)))))))).).)))))))) | 48.9 °C |
| CGACGTGCCAAATGTGCTG+CAGCACATCAAGCACGTCG ((((((((...((((((((+))))))))...)))))))) | 49.3 °C |
| CGACGTGCCAAATGTGCTG+CAGCACATCACGCACGTCG ((((((((...((((((((+))))))))...)))))))) | 47.3 °C |
| CGACGTGCCAAATGTGCTG+CAGCACATCAGGCACGTCG (((((((((..((((((((+))))))))..))))))))) | 54.2 °C |
| CGACGTGCCAAATGTGCTG+CAGCACATCATGCACGTCG ((((((((...((((((((+))))))))...)))))))) | 48.3 °C |
| CGACGTGCCAAATGTGCTG+CAGCACATCCTGCACGTCG ((((((((...((((((((+))))))))...)))))))) | 48.5 °C |
| CGACGTGCCAAATGTGCTG+CAGCACATCGGGCACGTCG (((((((((..((((((((+))))))))..))))))))) | 54.3 °C |
| CGACGTGCCAAATGTGCTG+CAGCACATCTTGCACGTCG ((((((((.(.((((((((+)))))))).).)))))))) | 48.7 °C |
| CGACGTGCCAAATGTGCTG+CAGCACATGACGCACGTCG ((((((((...((((((((+))))))))...)))))))) | 47.5 °C |
| CGACGTGCCAAATGTGCTG+CAGCACATGCCGCACGTCG ((((((((...((((((((+))))))))...)))))))) | 50.6 °C |
| CGACGTGCCAAATGTGCTG+CAGCACATGCGGCACGTCG (((((((((..((((((((+))))))))..))))))))) | 57.1 °C |
